# Laboratory results taken from the RNAGym collection of RNA variant scans (doi:10.1073/pnas.2313332121).
# B1: TPR t1 (parent)
# chain: GACCAAUCUGCCCUCAGAGCUCGAGAACAUCUUCGGAUGCAGAGGAGGCAGGCUUCGGUGGCGCGAUAGCGCCAACGUCCUCAACCUCCAAUGCAUCCCACCACAUGAUGAUGCCUGAAGAGCCUUGGUUUUUUG
# Variants of: B1
# Experiment: polymerase ribozyme fitness, log enrichment relative to wild type (log ratio); higher = more active; in vitro selection for triplet polymerase activity
# Procedure, shortened: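 The heterodimeric triplet polymerase ribozyme's subunits were each mutagenized into PCR-built libraries and transcribed. Every library was selected once, in triplicate, by annealing with a biotinylated primer, the partner subunit and triplets, incubating frozen at −7 °C, gel-excising extended constructs, capturing on streptavidin beads and running RT-PCR. Input and output libraries were Illumina-sequenced, with genotypes kept only at ≥10 input reads and ≥1 read per output. Fitness, from inverse-variance-weighted replicate averages, is the base-2 logarithm of genotype enrichment over wild-type enrichment.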
row,Variant,polymerase ribozyme fitness (log ratio)
1,A43G G110C,-2.35
2,A46U C49A,-0.332
3,A41C G69C C114A,-3.84
4,G45C C88U,-0.355
5,C8A C94A,-0.131
6,G57A A103C G120C C124A,-4.81
7,C72G U92C C94A,-3.47
8,C4U C15G C28U A121G,-2.9
9,A6U G36C,-1.42
10,A6U C62A A111U G122A,-5.22
11,A6U C56A A105G,-2.46
12,G36U G61U,-0.625
13,A6U G71C,-0.895
14,G42C C49A G93C,-3.52
15,C28U C89U,-2.51
16,G19A A91G G117A,-5.25
17,A2G C102A C114U,-4.44
18,G39U C56G,-1.37
19,G36C G120A,-0.114
20,U7A C79G C123U,0.729
21,A74G A119G,0.969

row,Variant,polymerase ribozyme fitness (log ratio)
1,C3U C49A A84C C104U G120U,-0.46
2,G69C C94U U96A,-2.83
3,A95C A119U,-1.28
4,A5U G19A C72G U112G,-4.06
5,C53U U87A,-0.467
6,A41C C89A G93U C101U G113U,-6.26
7,G48A C49G G51U C94A A111U,-6.59
8,C12U C85U A95C,-1.78
9,A2G G57A G61A G117U,-3.55
10,U9A G71A,0.174
11,C4G G63A,-2.73
12,G45U A66G,-2.32
13,C11A A119U,-1.67
14,U33G G39U A50U A84U A91C C114A,-5.3
15,C40A G61A C80U,-2.91
16,C20U A29C G120A,-3.64
17,U78A G117U,-2.81
18,C8G A41G A83G G110U A121G,-3.81
19,A37C C40A G52A G61C A111C G127C,-5.24
20,G71U G110A,-1.39
21,C62G U96A C123U,-3.13

row,Variant,polymerase ribozyme fitness (log ratio)
1,G10C G60U,-0.819
2,C15G A118U C123U,-0.83
3,C13U C56A C86A,-0.732
4,A6U G93A,-0.555
5,U21A G69U,0.577
6,G35A G58A U78A C104U,-4.33
7,C49A C72A C94A,-0.633
8,U14G G45C,-3.41
9,A43U C73U C123G G127C,-1.76
10,G69A U130C,-3.09
11,U30G C34G C40U C73U A91C C114U,-7.29
12,G10U G71A,-0.104
13,G48C G77A,-1.21
14,C12G U55C A90C,-1.45
15,C3U C49A,0.209
16,G44C A91C G120A,-0.836
17,C40A A84G C104A G120C G135A,-4.9
18,G51U G60U C73G,-2.23
19,C72G C114G U130G U133A,-3.37
20,C34U C123G,-1.94
21,G44C A83G A111C,-2.73

row,Variant,polymerase ribozyme fitness (log ratio)
1,C13U C22G G44A C56A,-5.28
2,G113U G122C,-2.73
3,A43U G48A A100C A111G,-5.16
4,U9A G19C C85A U112A,-0.364
5,A37C G57U A68G,-3.57
6,G61A C123U,1.29
7,G69C A84C U125A,-2.42
8,C20A C28U A46C G113U C115A,-4.17
9,G36A G57U U129C,-1.31
10,U9G C13U C104A,-1.55
11,C70U C124U,0.579
12,G42A C72G,-2.43
13,A29G G52A G71U C73U,-4.52
14,A6C C8A A121C,1.45
15,A18U A26G C40G A43U C97A U112A,-6.73
16,G36U G47U G61A,-4.11
17,G44U C82A C97A A121U,-3.17
18,C70U U87A C97U U112A C115U G127A,-4.04
19,U9C C34U G69U C72U C101A G117A U125A U130G,-6.7
20,C40A G63C C123U,-0.868
21,C20U U33G C123U,-6.12
